Measured values: patent US20030027228A1 (MYRIAD GENETICS, published 2003)
Values belong to the binder of their own block, whether it stands above or below them. * marks the point of attachment. Biotin = O=C1N[C@H]2[C@H](CS[C@H]2CCCCC(=O)*)N1

Tests used:
Experiment in all cases: peptide binding ELISA: GST-PDZ on plate, biotin-peptide/streptavidin-alkaline phosphatase complex, colorimetric
[1] = biological target: T1, AF6 PDZ binding peptide biotin-SGDDGDDPFLQYEFYV-COOH (SMILES …)
T1 peptide: Biotin-SGDDGDDPFLQYEFYV-OH
From the text: (§1) cDNAs encoding each of the MMSC1 PDZ domains (amino acid residues identified in Table 1), and any desired control proteins, were generated by PCR and subcloned as glutathione S-transferase (GST) fusions in pGEX vectors (Pharmacia). After sequencing to confirm expression construct integrity, the resulting clones were expressed in E. coli and the desired fusion proteins isolated with glutathione-agarose and recovered with glutathione elution. These fusion proteins or control proteins were then adsorbed to different wells of a 96-well ELISA plate and remaining sites blocked with BSA. Synthetic commercially synthesized peptides encoding the desired PDZ-binding domain (i.e., the 16 C-terminal amino acids of MMAC1, or the C-terminal peptide sequences of interacting proteins identified by the approach of Example 2, or the C-terminal peptide sequences identified by the approach of Example 3), or a control peptide, and biotinylated at the amino-terminus, were pre-bound to streptavidin-alkaline phosphatase in a 4:1 molar ratio. The biotinylated peptide streptavidin-alkaline phosphatase complexes were then blocked with free biotin. These pre-bound peptide streptavidin-alkaline phosphatase complexes were then incubated with the immobilized PDZ domains in wash buffer containing PBS, BSA and triton-X100. Unbound material was removed with repeated washes. Bound peptide/streptavidin-alkaline phosphatase complex was then quantitated by a colorimetric phosphatase assay read on a 96-well plate reader.

[2] = biological target: T2, MMAC1.388-403 biotin-ENEPFDEDQHTQITKV-COOH (SMILES …)
T2 construct: also called the 16 C-terminal amino acids of MMAC1
T2 peptide: Biotin-ENEPFDEDQHTQITKV-OH
From the text: as §1

[3] = biological target: T3, SH3 binding peptide biotin-SGSGILAPPVPPRNTR-COOH (SMILES …)
T3 peptide: Biotin-SGSGILAPPVPPRNTR-OH
From the text: as §1

A405 [1]: 0.29 A405
A405 [2]: 0.3 A405
A405 [3]: 0 A405
B1: GST fusion of MMSC1 PDZ domain 8 (amino acids 1436-1518) (other)
chain: MIIEISKGRSGLGLSIVGGKDTPLNAIVIHEVYEEGAAARDGRLWAGDQILEVNGVDLRNSSHEEAITALRQTPQKVRLVVYR
notes: Expressed in E. coli, purified on glutathione-agarose, adsorbed to the ELISA plate; GST is placed N-terminal as in pGEX vectors; also called MMSc1 PDZ 8; PDZ domain number 8; not shown: glutathione S-transferase (GST) encoded by pGEX vectors (Pharmacia)

A405 [1]: 2.24 A405
A405 [2]: 0.01 A405
A405 [3]: 0.01 A405
B2: GST fusion of MMSC1 PDZ domain 3 (amino acids 364-451) (other)
chain: YNVELVRKDGQSLGIRIVGYVGTSHTGEASGIYVKSVIPGSAAYHNGHIQVNDKIVAVDGVNIQGFANHDVVEVLRNAGQVVHLTLVR
notes: Expressed in E. coli, purified on glutathione-agarose, adsorbed to the ELISA plate; GST is placed N-terminal as in pGEX vectors; also called MMSc1 PDZ 3; PDZ domain number 3; not shown: glutathione S-transferase (GST) encoded by pGEX vectors (Pharmacia)

A405 [1]: 1.05 A405
A405 [2]: 1.25 A405
A405 [3]: 0.01 A405
B3: GST fusion of MMSC1 PDZ domain 7 (amino acids 1238-1320) (other)
chain: HIIELEKDKNGLGLSLAGNKDRSRMSIFVVGINPEGPAAADGRMHIGDELLEINNQILYGRSHQNASAIIKTAPSKVKLVFIR
notes: Expressed in E. coli, purified on glutathione-agarose, adsorbed to the ELISA plate; GST is placed N-terminal as in pGEX vectors; also called MMSc1 PDZ 7; PDZ domain number 7; not shown: glutathione S-transferase (GST) encoded by pGEX vectors (Pharmacia)

A405 [1]: 1.46 A405
A405 [2]: 0.23 A405
A405 [3]: 0 A405
B4: GST fusion of MMSC1 PDZ domain 6 (amino acids 1067-1158) (other)
chain: RIVEIFREPNVSLGISIVGGQTVIKRLKNGEELKGIFIKQVLEDSPAGKTNALKTGDKILEVSGVDLQNASHSEAVEAIKNAGNPVVFIVQS
notes: Expressed in E. coli, purified on glutathione-agarose, adsorbed to the ELISA plate; GST is placed N-terminal as in pGEX vectors; also called MMSc1 PDZ 6; PDZ domain number 6; not shown: glutathione S-transferase (GST) encoded by pGEX vectors (Pharmacia)

A405 [1]: 0.02 A405
A405 [2]: 0 A405
A405 [3]: 0 A405
B5: GST fusion of MMSC1 PDZ domain 5 (amino acids 685-771) (other)
chain: KIVELVKDCKGLGFSILDYQDPLDPTRSVIVIRSLVADGVAERSGGLLPGDRLVSVNEYCLDNTSLAEAVEILKAVPPGLVHLGICK
notes: Expressed in E. coli, purified on glutathione-agarose, adsorbed to the ELISA plate; GST is placed N-terminal as in pGEX vectors; also called MMSc1 PDZ 5; PDZ domain number 5; not shown: glutathione S-transferase (GST) encoded by pGEX vectors (Pharmacia)

A405 [1]: 2.41 A405
A405 [2]: 0.1 A405
A405 [3]: 0.02 A405
B6: GST fusion of MMSC1 PDZ domain 9 (amino acids 1532-1613) (other)
chain: FPVDLQKKAGRGLGLSIVGKRNGSGVFISDIVKGGAADLDGRLIQGDQILSVNGEDMRNASQETVATILKCAQGLVQLEIGR
notes: Expressed in E. coli, purified on glutathione-agarose, adsorbed to the ELISA plate; GST is placed N-terminal as in pGEX vectors; also called MMSc1 PDZ 9; PDZ domain number 9; not shown: glutathione S-transferase (GST) encoded by pGEX vectors (Pharmacia)
